Laboratory results from patent US9493780B2, “Chloroplast transit peptide” (Dow AgroSciences LLC, priority 2012, dated 2016).
Entries after “also recorded” stand apart in the source; their conditions may differ.

B1: TraP5 v2: chloroplast transit peptide fused to dgt-28 (protein)
chain: MQLLNQRQALRLGRSSASKNQQVAPLASRPASSLSVSASSVAPAPACSAPAGAGRRAVVVRA
modifications: Chloroplast Transit Peptide
B2: TraP14: chimeric chloroplast transit peptide (SEQ ID NO:3): N-terminus from Dunaliella salina GPDH, C-terminus from D. salina EPSPS (protein)
chain: MILGSSPTLPHASHPARPGPARPISVNDVVPHVYSAPLSVARRSCSKSSIRSTRRLQTTVCS
modifications: chimeric TraP14 fusion protein

Tests used:
T2 Arabidopsis = T2 Arabidopsis events response to glyphosate applied postemergence, visual % injury; format: in vivo, Arabidopsis thaliana; settings: T2 Arabidopsis single copy events
Source text: The second generation plants (T2) of selected T1 Arabidopsis events which contained low copy numbers of the dgt-28 transgene were further characterized for glyphosate tolerance. Glyphosate was applied as described previously. The response of the plants is presented in terms of % visual injury 2 weeks after treatment (WAT). […] An arithmetic mean and standard deviation are presented for each construct used for Arabidopsis transformation. The range in individual response is also indicated in the last column for each rate and transformation. Wild-type, non-transformed Arabidopsis (cv. Columbia) served as a glyphosate sensitive control. In the T2 generation hemizygous and homozygous plants were available for testing for each event and therefore were included for each rate of glyphosate tested. Hemizygous plants contain two different alleles at a locus as compared to homozygous plants which contain the same two alleles at a locus. Variability of response to glyphosate is expected in the T2 generation as a result of the difference in gene dosage for hemizygous as compared to homozygous plants. The variability in response to glyphosate is reflected in the standard deviation and range of response.

[1] = test system: chloroplasts of the maize protoplast; test: Maize protoplast transient assay of TraP14-GFP (microscopy); format: cell-based, Zea mays; settings: TraP14-GFP fusion; microscopy after 12 hours of incubation
Source text: The Trap14v2 chimeric chloroplast transit peptide sequence (SEQ ID NO:8) were cloned upstream of the green fluorescent protein gene and incorporated into construct pDAB109902 (FIG. 4) for testing via the maize protoplast transient in planta assay. The resulting constructs contained a single plant transcription unit (PTU). The first PTU was comprised of the Zea mays Ubiquitin 1 promoter (ZmUbi1 promoter; Christensen, A., Sharrock R., and Quail P., (1992) Maize polyubiquitin genes: structure, thermal perturbation of expression and transcript splicing, and promoter activity following transfer to protoplasts by electroporation, Plant Molecular Biology, 18:675-689), TraP-green fluorescent protein fusion gene (TraP14-GFP; U.S. Pat. No. 7,678,893), and Zea mays Peroxidase 5 3′ untranslated region (ZmPer5 3′UTR; U.S. Pat. No. 6,384,207). The constructs were confirmed via restriction enzyme digestion and sequencing.
Seed of Zea mays var. B104 were surface sterilized by shaking vigorously in 50% Clorox (3% sodium hypochlorite), containing 2-3 drops of Tween 20, for about 20 minutes. […]
Transfection of 100 to 500 μl of protoplasts (1−5×10^5) was completed by adding the protoplasts to a 2 ml microfuge tube containing about 40 μg of plasmid DNA (pDAB106597), at room temperature. […] Fluorescence of GFP was viewed by microscopy after 12 hours of incubation. […]

Row | Molecule | tolerance to glyphosate (T2 Arabidopsis) | translocation of GFP into chloroplasts [1]
1 | B1 | did not provide robust tolerance to glyphosate | –
2 | B2 | – | accumulated within the chloroplasts; also recorded: successfully targeted GFP to maize chloroplasts
